These results are taken from publication PMC8298602, “14-3-3-protein regulates Nedd4-2 by modulating interactions between HECT and WW domains” (Communications Biology, 2021).

pKd: −log10 of the molar value.

In test [1] the target is phosphorylated Nedd4-2^186–975 (human) (UniProt Q96PU5). The test is described as follows: SEC-SAXS; Superdex 200 Increase 5/150 GL, 20 mM Tris-HCl pH 7.5, 150 mM NaCl, 1 mM TCEP, 3% glycerol, 293.15 K; loaded 2.2 mg/ml Nedd4-2^186–975, 2 mg/ml 14-3-3η, 8.9 mg/ml complex (1:2, 60 μM).
For test [2] the target is unchanged. The test is described as follows: AUC; sedimentation velocity, 20 °C, 50 mM Tris-HCl pH 8.0, 500 mM NaCl, 1 mM TCEP, 0.01% NP-40; 3 μM pNedd4-2^186–975 alone, 6 μM 14-3-3η alone, mixtures 1:1 and 1:2; 300 nM pNedd4-2^186–975 with 0.06−6 μM 14-3-3η; apparent KD, sw isotherm and Lamm-equation modelling, 14-3-3η dimer + one pNedd4-2.

phosphorylated Nedd4-2^186–975 (human), sequence (Q96PU5 186-975): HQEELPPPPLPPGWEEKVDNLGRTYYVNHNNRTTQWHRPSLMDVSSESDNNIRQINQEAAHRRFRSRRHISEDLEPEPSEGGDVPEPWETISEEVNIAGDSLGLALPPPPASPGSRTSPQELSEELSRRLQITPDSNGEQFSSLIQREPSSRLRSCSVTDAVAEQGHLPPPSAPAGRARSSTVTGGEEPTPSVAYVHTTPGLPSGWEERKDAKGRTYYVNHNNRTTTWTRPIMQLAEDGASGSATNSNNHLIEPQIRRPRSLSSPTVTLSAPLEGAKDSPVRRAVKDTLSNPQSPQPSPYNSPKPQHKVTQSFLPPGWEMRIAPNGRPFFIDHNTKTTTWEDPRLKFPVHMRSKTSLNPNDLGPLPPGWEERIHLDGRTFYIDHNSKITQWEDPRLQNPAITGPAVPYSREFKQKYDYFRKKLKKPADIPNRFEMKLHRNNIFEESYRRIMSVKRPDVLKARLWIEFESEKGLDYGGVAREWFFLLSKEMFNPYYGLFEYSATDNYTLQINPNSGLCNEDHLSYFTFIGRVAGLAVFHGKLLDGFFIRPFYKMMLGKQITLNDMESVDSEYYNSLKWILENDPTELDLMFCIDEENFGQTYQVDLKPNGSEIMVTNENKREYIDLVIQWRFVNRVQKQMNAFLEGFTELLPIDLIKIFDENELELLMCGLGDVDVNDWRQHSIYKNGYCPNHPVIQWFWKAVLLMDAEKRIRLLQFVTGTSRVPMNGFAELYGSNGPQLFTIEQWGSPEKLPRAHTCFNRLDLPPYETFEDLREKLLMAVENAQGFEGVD

The pKd is −log10 of the Kd, conventionally taken in molar units. In test [1], “14-3-3η (from UniProt Q04917 1-246) (natural protein)” yielded a stoichiometry N (14-3-3η protomers per Nedd4-2 protomer) of 2. In test [2], the pKd was above 7.30 and the stoichiometry N (14-3-3η protomers per Nedd4-2 protomer) came to 2.
